Experimental data from patent US20200331998A1.

Target: UCART19 CAR (anti-CD19 chimeric antigen receptor with a 4G7-derived scFv, on UCART19 cells)
Assay: flow cytometry blocking assay: fresh UCART19 cells pre-incubated with unconjugated antibody, then stained with labelled soluble CD19-hFc; ligand: m14

Chain of UCART19 CAR (anti-CD19 chimeric antigen receptor with a 4G7-derived scFv, on UCART19 cells) (chain, as listed by the source mutant): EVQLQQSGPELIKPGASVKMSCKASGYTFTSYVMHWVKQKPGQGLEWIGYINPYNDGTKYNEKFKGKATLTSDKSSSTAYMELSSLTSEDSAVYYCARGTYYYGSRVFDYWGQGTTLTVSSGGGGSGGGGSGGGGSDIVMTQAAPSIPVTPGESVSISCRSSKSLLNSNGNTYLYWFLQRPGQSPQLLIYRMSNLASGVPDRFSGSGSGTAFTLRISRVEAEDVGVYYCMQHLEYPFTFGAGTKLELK

Substance: Isotype Control (antibody)
- CAR+ (% cells stained by APC-sCD19) at 0.2 µg/mL antibody: 52.4%
- CAR+ (% cells stained by APC-sCD19) at 0.39 µg/mL antibody: 52.9%
- CAR+ (% cells stained by APC-sCD19) at 0.78 µg/mL antibody: 53.4%
- CAR+ (% cells stained by APC-sCD19) at 1.56 µg/mL antibody: 52.7%
- CAR+ (% cells stained by APC-sCD19) at 3.125 µg/mL antibody: 52.9%
- CAR+ (% cells stained by APC-sCD19) at 6.25 µg/mL antibody: 52.6%
- CAR+ (% cells stained by APC-sCD19) at 12.5 µg/mL antibody: 52.3%
- CAR+ (% cells stained by APC-sCD19) at 25 µg/mL antibody: 52%
- CAR+ (% cells stained by APC-sCD19) at 50 µg/mL antibody: 53.3%
- CAR+ (% cells stained by APC-sCD19) at 100 µg/mL antibody: 54.8%
